Six sequences from the DeepSol protein solubility set can be followed below.

The nature of this series: soluble on expression in E. coli; label from the status in PepcDB or PDB records.
In the case of “MSPHPPQPHPPMPPMPPVTAPPGAMTPMPPVPADAQKLHQSTGNDACIKRLQQLNVEDGAKMYMKPTEPGKMGRPVDIQTNVFGIEVTKETTVHRFMVHAKADLTSTKEVTFTKKGKEDFVVQDRRDKCCNIFFLAVEKNPEFFKMKDGNQIVYDGQSTLYTTVNLFSELDANGTKSKVFQINGADTGNDDLKTLPCISLEIYAPRDNSITLSSENLGKRTADQNIEVNNREYTQFLELALNQHCVRETNRFGCFEHGKVYFLNATEEGFDQRDCVDVGDGKQLYPGLKKTIQFIEGPYGRGQNNPSLVIDGMKAAFHKEQTVIQKLFDITGQDPSNGLNNMTREKAAAVIKGLDCYSTYTNRKRHLRIEGIFHESATKTRFELPDGKTCSIAEYYADKYKISLQYPNANLVVCKDRGNNNYFPAELMTVSRNQRVTIPQQTGNQSQKTTKECAVLPDVRQRMIITGKNAVNITLENELLVALGIKVYSEPLMVQARELDGKELVYQRSVMSDMGKWRAPPGWFVKPATVPDLWAAYAVGNPGCRFSIGDVNQLVGMFIDSCKKKGMVIKPPCETGLYSTEKIMTQLEKVAASKCKYVLMITDDAIVHLHKQYKALEQRTMMIVQDMKISKANAVVKDGKRLTLENIINKTNVKLGGLNYTVSDAKKSMTDEQLIIGVGVSAPPAGTKYMMDNKGHLNPQIIGFASNAVANHEFVGDFVLAPSGQDTMASIEDVLQNSIDLFEKNRKALPKRIIIYRSGASEGSHASILAYEIPLARAIIHGYSKEIKLIFIVVTKEHSYRFFRDQLRSGGKATEMNIPPGIVLDNAVTNPACKQFFLNGHTTLQGTAKTPLYTVLADDCKAPMDRLEELTFTLCHHHQIVSLSTSIPTPLYVANEYAKRGRDLWGELTTKGPIEAKESQGERLKELTKEIGYKQTDLNQKRVNA”, the “soluble on expression in E. coli” value is on record as “not soluble”. For the sequence “MGSDKIHHHHHHMTDRLFTETLLAAVGEDLLRTRLSEEFIRVDLGAETVAPLLTFDALSELLSTHQLEPPRLRLHRAGAPVPLDNYTEVGEASGVQRRLVRPEALYAQLRQGASLVLDGIDRIHPPIRAAADDLMRLVHERVQVNLYLIWGDSHGFNTHWDDHDTFIVQVAGTKHWQVHGQGTRPYPMKEDIDHSHQPPEGTVWEGTVRAGEVLHVPRGWWHTVTGTGDVSMHLTFGFTRATGVDWARWLVDRLYEVEFARRDLPRFATPEERRKHQHELLRHLMDLAEQHGLDEFLTDRDSRFPRRQSFSLPWAVDGATPQPDTVVEFTPILPSALRDEGQKVALTVAGRRYTFAKAAQPLLEVLVDARVLTVAELAERAGAEVETAAALARVLVQHHLVLLRSTS”, the “soluble on expression in E. coli” value was “not soluble”. For “MTESVARLRGEQLTLGYGKYTVAENLTVEIPDGHFTAIIGPNGCGKSTLLRTLSRLMTPAHGHVWLDGEHIQHYASKEVARRIGLLAQNATTLGDITVQELVARGRYPHQPLFTRWRKEDEEAVTKAMQATGITHLADQSVDTLSGGQRQRAWIAMVLAQETAIMLLDEPTTWLDISHQIDLLELLSELNREKGYTLAAVLHDLNQACRYASHLIALREGKIVAQGAPKEIVTAELIERIYGLRCMIIDDPVAGTPLVVPLGRTAPSTANS” the value was “not soluble”; for “MSRTWIRNPLAIFTANGLDAAGGLVVEDGRIVELLGAGQQPAQPCASQFDASRHVVLPGLVNTHHHFYQTLTRAWAPVVNQPLFPWLKTLYPVWARLTPEKLELATKVALAELLLSGCTTAADHHYLFPGGLEQAIDVQAGVVEELGMRAMLTRGSMSLGEKDGGLPPQQTVQEAETILADSERLIARYHQRGDGARVQIALAPCSPFSVTPEIMRASAEVAARHDVRLHTHLAETLDEEDFCLQRFGLRTVDYLDSVGWLGPRTWLAHGIHFNAEEIRRLGEAGTGICHCPSSNMRLASGICPTVELEAAGAPIGLGVDGSASNDASNMILEARQALYLQRLRYGAERITPELALGWATRGSARLLGRSDIGELAPGKQADLALFKLDELRFSGSHDPLSALLLCAADRADRVMVGGAWRVVDGAVEGLDLAALIARHRAAASALIAG”, “not soluble”; for “AYDIISDIHGCYDEMTALIQKLGYTIKNGVPVHEEGRVLVFAGDLTDRGPKSIEVIRFVAGAYEKGAVRYVPGNHCNKLYRYLKGNPVKVMHGLETTAAELEELSKDEKKSVSEQFMKLYETAPLYDILHNGELVVAHAGIRADDIGKYTRRVKDFVLYGDVTGETYPDGRPIRRDWAAAYNGKAWVVYGHTPVKEPRKVNRTINIDTGCVFGNQLTGFRFPEIETVSVPSSLPYDESRFRP”, “not soluble”.

As to “MGSDKIHHHHHHMDKQLWEKAVAFHGHECPGLAIGFRACEAVQEKMGLKFSQDEEVVCVTENDACGADAVQVITGCSFGKGNLIYRGTGKMAFSFFSRNTGESMRIVLKPSSSEMDRQERQNYILTAPMDDVFEFKKPGFTLPKQARLFKTVICEVCGEGAPEHKMRLQEGKKVCLDCFEDYSRGY”, the “soluble on expression in E. coli” value is listed as “not soluble”.
